Assay [1] addresses Candida albicans (Cat. No. 10231, ATCC) whole cells (Candida albicans). Nature of the assay: luminescent ELISA, Fab on C. albicans cells.
The target is the same in assay [2]. Kind of assay: converted from Table 20a with a Fab of about 50 kDa.
Assay [3] shares this target. Kind of assay: luminescent C. albicans ELISA, Fab; assay background 950. In general terms: In an ELISA, binding on a coated surface is turned into a signal by an enzyme label.
Assay [4] has the same target. Kind of assay: C. albicans FACS, mean FITC fluorescence, Fab; assay background 100.
Assay [5] shares this target. Kind of assay: FACS, IgG on fixed cells. A general note: A flow cytometer gives signals particle by particle.
Assay [6] deals with Candida krusei clinical isolate, whole cells (Candida krusei). Nature of the assay: FACS, IgG on fixed cells.

The results in this text go back to patent publication US20110189183A1.

B1: 1H12 Fab (Fab, V domains shown)
VH: EVQLVESGGGLVKAGGSLILSCGVSNFRISAHTMNWVRRVPGGGLEWVASISTSSTYRDYADAVKGRFTVSRDDLEDFVYLQMHKMRVEDTAIYYCARKGSDRLSDNDPFDAWGPGTVVTVSP
VL: GVVMTQSPSTLSASVGDTITITCRASQSIETWLAWYQQKPGKAPKLLIYKASTLKTGVPSRFSGSGSGTEFTLTISGLQFDDFATYHCQHYMPYRASFGQGTRVEIKR
As for B1, the Approximate Affinity in assay [1] stood at 9 µg/mL. In assay [2], this molecule displayed an affinity (converted to molar) of 180 nM. The ELISA (RFU) in assay [3] was 1710 RFU. For the same molecule, in assay [4], the FACS (MF) turned out to be 2080 MF.

B2: ID-2-RD4-P1A5 Fab (Fab, V domains shown)
VH: EVQLVESGGGLVKAGGSLILSCGVSNFRISAHTMNWVRRVPGGGLEWVASISTSSTYRDYADAVKGRFTVSRDDLEDFVYLQMHKMRVEDTAIYYCARKGSDRLSDNDPFDAWGPGTVVTVSP
VL: GVVMTQSPSTLSASVGDTITITCRASQSIETWLAWYQQKPGKAPKLLIYKASTLKTGVPSRFSGSGSGTEFTLTISGLQFDDFATYHCQHYLSYNATFGQGTRVEIKR
Molecule B2 displayed an ELISA (RFU) in assay [3] of 8140 RFU. Besides, in assay [4], the FACS (MF) stood at 4000 MF.

B3: ID-3-RD5-P2E9 Fab (Fab, V domains shown)
VH: EVQLVESGGGLVKAGGSLILSCGVSNFRISAHTMNWVRRVPGGGLEWVASISTSSTYRDYADAVKGRFTVSRDDLEDFVYLQMHKMRVEDTAIYYCARKGSDRLSDNDPFDAWGPGTVVTVSP
VL: GVVMTQSPSTLSASVGDTITITCRASQSIETWLAWYQQKPGKAPKLLIYKASTLKTGVPSRFSGSGSGTEFTLTISGLQFDDFATYHCQHYTPHFGATFGQGTRVEIKR
Turning to B3, the ELISA (RFU) in assay [3] worked out at 8000 RFU. In assay [4], this molecule had an FACS (MF) of 8910 MF.

B4: ID-1-RD4-P2G9 Fab (Fab, V domains shown)
VH: EVQLVESGGGLVKAGGSLILSCGVSNFRISAHTMNWVRRVPGGGLEWVASISTSSTYRDYADAVKGRFTVSRDDLEDFVYLQMHKMRVEDTAIYYCARKGSDRLSDNDPFDAWGPGTVVTVSP
VL: GVVMTQSPSTLSASVGDTITITCRASQSIETWLAWYQQKPGKAPKLLIYKASTLKTGVPSRFSGSGSGTEFTLTISGLQFDDFATYHCQHYQPFDATFGQGTRVEIKR
For B4, the ELISA (RFU) in assay [3] was found to be 4000 RFU. The same molecule gave an FACS (MF) in assay [4] of 2350 MF.

B5: ID-2-RD6-P1H10 Fab (Fab, V domains shown)
VH: EVQLVESGGGLVKAGGSLILSCGVSNFRISAHTMNWVRRVPGGGLEWVASISTSSTYRDYADAVKGRFTVSRDDLEDFVYLQMHKMRVEDTAIYYCARKGSDRLSDNDPFDAWGPGTVVTVSP
VL: GVVMTQSPSTLSASVGDTITITCRASQSIETWLAWYQQKPGKAPKLLIYKASTLKTGVPSRFSGSGSGTEFTLTISGLQFDDFATYHCQHYQPFKATFGQGTRVEIKR
Turning to B5, the ELISA (RFU) in assay [3] is 5000 RFU. The molecule also gave an FACS (MF) in assay [4] of 2190 MF.

B6: A4F10 IgG (antibody, V domains shown)
VH: EVQLVESGGGLVKAGGSLILSCGVSNFRISAHTMNWVRRVPGGGLEWVASISTSSTYRDYADAVKGRFTVSRDDLEDFVYLQMHKMRVEDTAIYYCARKGSDRLSDNDPFDAWGPGTVVTVSP
VL: GVVMTQSPSTLSASVGDTITITCRASQSIETWLAWYQQKPGKAPKLLIYKASTLKTGVPSRFSGSGSGTEFTLTISGLQFDDFATYHCQHYTDHYGATFGQGTRVEIKR
With B6, the affinity in assay [5] and in assay [6] was 50 nM in each case.

B7: A1G7 Fab (Fab, V domains shown)
VH: EVQLVESGGGLVKAGGSLILSCGVSNFRISAHTMNWVRRVPGGGLEWVASISTSSTYRDYADAVKGRFTVSRDDLEDFVYLQMHKMRVEDTAIYYCARKGSDRLSDNDPFDAWGPGTVVTVSP
VL: GVVMTQSPSTLSASVGDTITITCRASQSIETWLAWYQQKPGKAPKLLIYKASTLKTGVPSRFSGSGSGTEFTLTISGLQFDDFATYHCQHYTDHRGATFGQGTRVEIKR
As to B7, the Approximate Affinity in assay [1] was 1.5 µg/mL. The same molecule showed an affinity (converted to molar) in assay [2] of 30 nM.

B8: A1G7 IgG (antibody, V domains shown)
VH: EVQLVESGGGLVKAGGSLILSCGVSNFRISAHTMNWVRRVPGGGLEWVASISTSSTYRDYADAVKGRFTVSRDDLEDFVYLQMHKMRVEDTAIYYCARKGSDRLSDNDPFDAWGPGTVVTVSP
VL: GVVMTQSPSTLSASVGDTITITCRASQSIETWLAWYQQKPGKAPKLLIYKASTLKTGVPSRFSGSGSGTEFTLTISGLQFDDFATYHCQHYTDHRGATFGQGTRVEIKR
As to B8, the affinity in assay [5] and in assay [6] was 50 nM each time.

B9: ID-3-RD6-P1H10 Fab (Fab, V domains shown)
VH: EVQLVESGGGLVKAGGSLILSCGVSNFRISAHTMNWVRRVPGGGLEWVASISTSSTYRDYADAVKGRFTVSRDDLEDFVYLQMHKMRVEDTAIYYCARKGSDRLSDNDPFDAWGPGTVVTVSP
VL: GVVMTQSPSTLSASVGDTITITCRASQSIETWLAWYQQKPGKAPKLLIYKASTLKTGVPSRFSGSGSGTEFTLTISGLQFDDFATYHCQHYTAHNGATFGQGTRVEIKR
With B9, the ELISA (RFU) in assay [3] stood at 50000 RFU. The FACS (MF) in assay [4] is 3380 MF.

B10: ID-1-RD4-P2C10 Fab (Fab, V domains shown)
VH: EVQLVESGGGLVKAGGSLILSCGVSNFRISAHTMNWVRRVPGGGLEWVASISTSSTYRDYADAVKGRFTVSRDDLEDFVYLQMHKMRVEDTAIYYCARKGSDRLSDNDPFDAWGPGTVVTVSP
VL: GVVMTQSPSTLSASVGDTITITCRASQSIETWLAWYQQKPGKAPKLLIYKASTLKTGVPSRFSGSGSGTEFTLTISGLQFDDFATYHCQHYKPFMATFGQGTRVEIKR
In assay [3], B10 registered an ELISA (RFU) of 7900 RFU. In addition, the FACS (MF) in assay [4] worked out at 10600 MF.

B11: ID-2-RD6-P1H11 Fab (Fab, V domains shown)
VH: EVQLVESGGGLVKAGGSLILSCGVSNFRISAHTMNWVRRVPGGGLEWVASISTSSTYRDYADAVKGRFTVSRDDLEDFVYLQMHKMRVEDTAIYYCARKGSDRLSDNDPFDAWGPGTVVTVSP
VL: GVVMTQSPSTLSASVGDTITITCRASQSIETWLAWYQQKPGKAPKLLIYKASTLKTGVPSRFSGSGSGTEFTLTISGLQFDDFATYHCQHYMAYDATFGQGTRVEIKR
Take B11: the ELISA (RFU) in assay [3] is 13000 RFU. For the same molecule, the FACS (MF) in assay [4] amounted to 3760 MF.

B12: ID-1-RD5-P2H8 Fab (Fab, V domains shown)
VH: EVQLVESGGGLVKAGGSLILSCGVSNFRISAHTMNWVRRVPGGGLEWVASISTSSTYRDYADAVKGRFTVSRDDLEDFVYLQMHKMRVEDTAIYYCARKGSDRLSDNDPFDAWGPGTVVTVSP
VL: GVVMTQSPSTLSASVGDTITITCRASQSIETWLAWYQQKPGKAPKLLIYKASTLKTGVPSRFSGSGSGTEFTLTISGLQFDDFATYHCQHYREWHATFGQGTRVEIKR
In the case of B12, the ELISA (RFU) in assay [3] came out at 3500 RFU. In assay [4], this molecule had an FACS (MF) of 4930 MF.

B13: A4F10 Fab (Fab, V domains shown)
VH: EVQLVESGGGLVKAGGSLILSCGVSNFRISAHTMNWVRRVPGGGLEWVASISTSSTYRDYADAVKGRFTVSRDDLEDFVYLQMHKMRVEDTAIYYCARKGSDRLSDNDPFDAWGPGTVVTVSP
VL: GVVMTQSPSTLSASVGDTITITCRASQSIETWLAWYQQKPGKAPKLLIYKASTLKTGVPSRFSGSGSGTEFTLTISGLQFDDFATYHCQHYTDHYGATFGQGTRVEIKR
On to B13, for which the Approximate Affinity in assay [1] worked out at 1 µg/mL. Moreover, the affinity (converted to molar) in assay [2] is 20 nM.

B14: A2A12 IgG (antibody, V domains shown)
VH: EVQLVESGGGLVKAGGSLILSCGVSNFRISAHTMNWVRRVPGGGLEWVASISTSSTYRDYADAVKGRFTVSRDDLEDFVYLQMHKMRVEDTAIYYCARKGSDRLSDNDPFDAWGPGTVVTVSP
VL: GVVMTQSPSTLSASVGDTITITCRASQSIETWLAWYQQKPGKAPKLLIYKASTLKTGVPSRFSGSGSGTEFTLTISGLQFDDFATYHCQHYTAHTGATFGQGTRVEIKR
As for B14, the affinity in assay [5] and in assay [6] was 50 nM throughout.

B15: P2H12 IgG (antibody, V domains shown)
VH: EVQLVESGGGLVKAGGSLILSCGVSNFRISAHTMNWVRRVPGGGLEWVASISTSSTYRDYADAVKGRFTVSRDDLEDFVYLQMHKMRVEDTAIYYCARKGSDRLSDNDPFDAWGPGTVVTVSP
VL: GVVMTQSPSTLSASVGDTITITCRASQSIETWLAWYQQKPGKAPKLLIYKASTLKTGVPSRFSGSGSGTEFTLTISGLQFDDFATYHCQHYTDHHGATFGQGTRVEIKR
As for B15, the affinity in assay [5] and in assay [6] was 50 nM throughout.

B16: A1E8 IgG (antibody, V domains shown)
VH: EVQLVESGGGLVKAGGSLILSCGVSNFRISAHTMNWVRRVPGGGLEWVASISTSSTYRDYADAVKGRFTVSRDDLEDFVYLQMHKMRVEDTAIYYCARKGSDRLSDNDPFDAWGPGTVVTVSP
VL: GVVMTQSPSTLSASVGDTITITCRASQSIETWLAWYQQKPGKAPKLLIYKASTLKTGVPSRFSGSGSGTEFTLTISGLQFDDFATYHCQHYTDHKGATFGQGTRVEIKR
Take B16: the affinity in assay [5] and in assay [6] was 50 nM in each case.

B17: ID-3-RD5-P2H7 Fab (Fab, V domains shown)
VH: EVQLVESGGGLVKAGGSLILSCGVSNFRISAHTMNWVRRVPGGGLEWVASISTSSTYRDYADAVKGRFTVSRDDLEDFVYLQMHKMRVEDTAIYYCARKGSDRLSDNDPFDAWGPGTVVTVSP
VL: GVVMTQSPSTLSASVGDTITITCRASQSIETWLAWYQQKPGKAPKLLIYKASTLKTGVPSRFSGSGSGTEFTLTISGLQFDDFATYHCQHYRAHSGATFGQGTRVEIKR
B17 registered an ELISA (RFU) in assay [3] of 27000 RFU. In addition, the FACS (MF) in assay [4] is 10600 MF.

B18: P2H12 Fab (Fab, V domains shown)
VH: EVQLVESGGGLVKAGGSLILSCGVSNFRISAHTMNWVRRVPGGGLEWVASISTSSTYRDYADAVKGRFTVSRDDLEDFVYLQMHKMRVEDTAIYYCARKGSDRLSDNDPFDAWGPGTVVTVSP
VL: GVVMTQSPSTLSASVGDTITITCRASQSIETWLAWYQQKPGKAPKLLIYKASTLKTGVPSRFSGSGSGTEFTLTISGLQFDDFATYHCQHYTDHHGATFGQGTRVEIKR
With B18, the Approximate Affinity in assay [1] turned out to be 2 µg/mL. For the same molecule, in assay [2], the affinity (converted to molar) turned out to be 40 nM.
